Source: patent US7906477B2 (Genspera, Inc., priority 2002, dated 2011)
pKd: −log10 of the molar value. Square brackets hold non-standard residues; d marks the D form. Ends that are not written are not given here. Peptide text beside a SMILES is read from it. Tyr(3-NO2) = N[C@@H](Cc1ccc(O)c([N+](=O)[O-])c1)C(=O)O; 2Abz = Nc1ccccc1C(=O)O

Assays:
[1] = molecular target: sarcoplasmic reticulum (SR) and endoplasmic reticulum (ER) Ca^2+-ATPase (SERCA) pump; conditions: read-out: apparent dissociation constant for TG from the SERCA pump; cited from earlier work
[2] = molecular target: T1, hK2 (Homo sapiens, UniProt P20151); test: hK2 hydrolysis of prodrug and non-fluorescent peptide by HPLC; type: biochemical; conditions: HPLC analysis
T1 construct: made in house
Procedure: FIG. 4 depicts HPLC analysis of the hydrolysis of the hK2 prodrug Ac-GKAFRR-L12ADT (SEQ ID NO:41) by hK2 ([…]) incubated in 50 mM Tris, 0.1 M NaCl, pH 7.8 at room temperature for 24 hours. The mass of each peak was confirmed by MALDI-TOF mass spectrometric analysis.
Fluorescent substrates were analyzed by means of a fluorescence plate-reader (ex=355 nm, em=460 nm). acGKAFRRL-12ADT (SEQ ID NO:41) and acGKAFRRLG (SEQ ID NO:43) were analyzed by HPLC and quantified by HLPC integration.
This putative hK2 prodrug was incubated with enzymatically active hK2 (4 μg/ml) to determine extent of hydrolysis over time. […] In 25 min, 50% was hydrolyzed and after 1 hour, more than 80% of the starting prodrug was hydrolyzed. The ratio of the products RL-12ADT:L-12ADT was 1:1.8, as determined by HPLC integration.

[3] = plasma stability of acetylated versus non-acetylated peptide (plasma species not stated); type: in vitro ADME; conditions: plate-reader assay and analytical HPLC
Procedure: Mouse plasma was obtained from cardiac puncture of anesthetized mice prior to euthanization by CO2 overdose according to protocols approved by the Johns Hopkins Animal Care and Use Committee. Human plasma was obtained from discarded, pooled, and unlabeled clinical samples. Plasma was diluted to 50% in Tris buffer (50 mM Tris-HCl, 100 mM NaCl, pH 7.8). To this, test peptides/prodrugs were added to 250 or 500 μM final concentration. After the incubation period, one volume (200 μl) of acetonitrile was added to precipitate the protein fraction and the tube was centrifuged at 14,000 for 2 min. The supernatant was analyzed by C18-HPLC and the collected peaks were analyzed by MALDI-TOF as described above.
To determine whether merely the acetylation of the N-terminus of the hK2 prodrug contributed to its stability, an acetylated fluorescence-quenched peptide (ac-Y′GKAFRRLGK′; SEQ ID NO:18) was synthesized and compared its plasma stability with that of the non-acetylated peptide (Y′GKAFRRLGK′; SEQ ID NO:21). […] Analytical HPLC indicated the same result. […] The paradoxical stability of the hK2 prodrug (ac-GKAFRR-L12ADT; SEQ ID NO:41) compared to the peptide substrates may also be due to binding of the L12ADT moiety to plasma proteins that make it inaccessible to the plasma protease activity that is responsible for hydrolysis of unconjugated (and unbound) peptides.

[4] = molecular target: Plasmin (Homo sapiens, UniProt P00747); test: hydrolysis by tumor-associated proteases: Plasmin; type: biochemical
Excerpt: (§1) Due to their short length, the hK2 peptide substrates could potentially be substrates for other trypsin-like proteases. Although a rather specific protease substrate can be defined with 7 amino acids, there is a lack of higher order structural information by which natural protein substrates normally impose high specificity. Cancer progression is often correlated with increased protease activity (Koblinsli, J. E. et al. (2000) Clin. Chim. Acta 291:113-135). These activities could be potentially beneficial since they could broaden the scope of applications for protease activated prodrugs. To test the hypothesis that other tumor-associated proteases could activate the prodrug, a number of known proteases (table 3), implicated in cancer progression were selected to determine if our lead substrate, GKAFRRL (SEQ ID NO:30) could be efficiently hydrolyzed by any of these proteases. For this analysis, the trypsin-like serine proteases plasmin and urokinase and cathepsins B and D were selected. Hydrolysis of both the fluorescence quenched peptide substrate and the TG-prodrug was analyzed. […] Plasmin, therefore, could be a valid target for selective activation of the GKAFRR-L12ADT (SEQ ID NO:44) prodrug in other types of cancer where plasmin activation may play an important role.

[5] = molecular target: T1, hK2; test: hydrolysis in the protease panel: hK2; type: biochemical; conditions: enzyme 1 μg/ml, substrate 500 μM; 1 = approximately 0.1% digestion in 1 hour
Excerpt: as §1

[6] = molecular target: Urokinase (Homo sapiens, UniProt P00749); test: hydrolysis by tumor-associated proteases: Urokinase; type: biochemical
Excerpt: as §1

[7] = molecular target: Cathepsin B (Homo sapiens, UniProt P07858); test: hydrolysis by tumor-associated proteases: Cathepsin B; type: biochemical
Excerpt: as §1

[8] = molecular target: Cathepsin D (Homo sapiens, UniProt P07339); test: hydrolysis by tumor-associated proteases: Cathepsin D; type: biochemical
Excerpt: as §1

[9] = enzyme 1 μg/ml, substrate 500 μM, 1 = approximately 0.1% digestion in 1 hour

T1 sequence (P20151 25-261): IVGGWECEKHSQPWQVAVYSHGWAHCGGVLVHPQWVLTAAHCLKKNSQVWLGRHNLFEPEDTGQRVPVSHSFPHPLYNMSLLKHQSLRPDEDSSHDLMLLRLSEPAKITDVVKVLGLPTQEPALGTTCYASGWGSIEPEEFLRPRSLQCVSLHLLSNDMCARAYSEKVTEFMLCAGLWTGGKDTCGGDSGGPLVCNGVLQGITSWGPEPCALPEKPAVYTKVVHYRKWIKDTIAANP
Sequence of Cathepsin D (P07339 65-412, species assumed): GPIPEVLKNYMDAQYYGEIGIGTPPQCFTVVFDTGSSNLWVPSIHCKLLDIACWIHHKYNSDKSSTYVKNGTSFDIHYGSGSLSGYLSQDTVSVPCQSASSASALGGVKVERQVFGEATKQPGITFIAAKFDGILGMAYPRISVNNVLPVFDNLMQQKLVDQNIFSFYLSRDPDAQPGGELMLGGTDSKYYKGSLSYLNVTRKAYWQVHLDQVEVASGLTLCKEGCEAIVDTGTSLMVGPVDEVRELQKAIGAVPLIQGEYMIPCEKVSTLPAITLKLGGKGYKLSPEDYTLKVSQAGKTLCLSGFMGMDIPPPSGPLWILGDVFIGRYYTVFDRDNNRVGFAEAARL
Sequence of Plasmin (P00747 581-810 limits assumed, species assumed): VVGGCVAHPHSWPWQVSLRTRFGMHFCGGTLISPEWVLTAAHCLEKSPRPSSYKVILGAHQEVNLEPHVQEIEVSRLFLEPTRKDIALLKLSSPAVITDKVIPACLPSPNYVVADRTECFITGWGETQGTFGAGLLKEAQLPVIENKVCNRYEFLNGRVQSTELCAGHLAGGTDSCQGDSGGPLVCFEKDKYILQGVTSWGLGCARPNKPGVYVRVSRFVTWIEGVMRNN
Sequence of Plasmin (P00747 97-580 partner limits assumed, species assumed): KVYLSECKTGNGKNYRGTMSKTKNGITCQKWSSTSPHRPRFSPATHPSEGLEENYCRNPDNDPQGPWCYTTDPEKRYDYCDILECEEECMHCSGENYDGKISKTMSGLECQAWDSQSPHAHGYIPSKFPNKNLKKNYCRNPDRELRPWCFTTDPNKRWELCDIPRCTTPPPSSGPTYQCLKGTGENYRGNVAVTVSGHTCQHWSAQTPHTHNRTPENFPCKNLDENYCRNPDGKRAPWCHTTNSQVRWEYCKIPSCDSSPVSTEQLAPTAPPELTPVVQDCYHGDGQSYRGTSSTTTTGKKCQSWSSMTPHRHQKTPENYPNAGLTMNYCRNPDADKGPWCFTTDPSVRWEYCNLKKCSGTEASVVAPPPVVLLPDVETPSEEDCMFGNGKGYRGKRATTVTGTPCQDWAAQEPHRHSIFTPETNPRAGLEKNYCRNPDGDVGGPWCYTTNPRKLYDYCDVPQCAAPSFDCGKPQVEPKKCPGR

## C/C=C(/C)C(=O)O[C@H]1C(C)=C2[C@H]([C@@H]1OC(=O)CCCCCCC)[C@@](C)(OC(C)=O)C[C@H](OC(=O)CCC)[C@@]1(O)[C@H]2OC(=O)[C@@]1(C)O [TG, Thapsigargin]
[1]
  pKd: ≥ 11.66

## ac-GKAFRRLG: acetylated non-fluorescence quenched peptide (Ac-GKAFRRLG)
[2]
  hydrolysis by hK2 (in words): rapidly hydrolyzed by hK2

## CC(=O)N[C@@H](Cc1ccc(O)c([N+](=O)[O-])c1)C(=O)NCC(=O)N[C@@H](CCCCN)C(=O)N[C@@H](C)C(=O)N[C@@H](Cc1ccccc1)C(=O)N[C@@H](CCCNC(=N)N)C(=O)N[C@@H](CCCNC(=N)N)C(=O)N[C@@H](CC(C)C)C(=O)NCC(=O)N[C@@H](CCCCNC(=O)c1ccccc1N)C(=O)O [ac-Y′GKAFRRLGK′] (Ac-[Tyr(3-NO2)]GKAFRRLGK(2Abz)-OH)
[3]
  plasma hydrolysis compared with the non-acetylated peptide (in words): completely identical

## Abz-GKAFRRLY′: fluorescence quenched peptide substrate with the lead sequence GKAFRRL ([2Abz]GKAFRRL[Tyr(3-NO2)])
[4]; [9]
  Relative hydrolysis rate, Plasmin: 36
[4]; fluorescence quenched peptide substrate
  fold slower rate of hydrolysis by plasmin than by hK2: more than 10 fold
[5]
  Relative hydrolysis rate, hK2: 353
[6]
  activity of Urokinase on the substrate (in words): low activity
[6]; [9]
  Relative hydrolysis rate, Urokinase: 17
[7]
  hydrolysis following incubation with Cathepsin B (in words): No appreciable hydrolysis
[7]; [9]
  Relative hydrolysis rate, Cathepsin B: 1
[8]
  hydrolysis following incubation with Cathepsin D (in words): No appreciable hydrolysis
[8]; [9]
  Relative hydrolysis rate, Cathepsin D: 1
